# Laboratory results reported in patent US20210130436A1.
# Tests used:
# PD-L1 (human) = PD-L1 (human) (UniProt Q9NZQ7); test: cell-based or functional assay
# CD28 (human) = CD28 (human) (UniProt P10747); test: cell-based or functional assay
# Chain of PD-L1 (human) (Q9NZQ7 19-290): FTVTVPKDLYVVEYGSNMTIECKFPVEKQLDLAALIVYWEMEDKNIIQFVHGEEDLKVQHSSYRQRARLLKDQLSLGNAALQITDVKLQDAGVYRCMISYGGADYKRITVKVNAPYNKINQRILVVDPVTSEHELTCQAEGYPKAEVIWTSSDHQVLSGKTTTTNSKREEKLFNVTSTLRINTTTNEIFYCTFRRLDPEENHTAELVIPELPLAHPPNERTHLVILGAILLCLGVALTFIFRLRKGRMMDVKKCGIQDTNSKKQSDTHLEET
"IL-2-luciferase RLU, Jurkat + K562/OKT3/PD-L1 aAPC, 50 nM (CD28 (human)) [RLU]","Fold Increase over WT CD80-IgV-Fc, same assay, 50 nM (CD28 (human)) [fold]",Substance,other results
–,–,CD80 IgV-Fc (inert) H18C/A26P/E35D/M47L/V68M/A71G (from UniProt P33681 35-141) (Fc fusion),"RLU, Jurkat/IL2 + CHO/OKT3/PD-L1 Reporter Assay, CD80 Conc 5.0 nM (PD-L1 (human)): 936 RLU"
556,–,variant CD80 IgV-Fc (inert) Q33L/E35D/M47V/L85Q (Fc fusion),–
–,–,CD80 IgV-Fc E35D/M43I/M47L/L85M (from UniProt P33681 35-141) (Fc fusion),"Jurkat/IL2 + CHO/OKT3/PD-L1 reporter assay, RLU at CD80 Conc 5.0 nM (PD-L1 (human)): 1430 RLU"
455,–,variant CD80 IgV-Fc (inert) H18Y/Y31H/E35D/M47V/A71G/L85Q (Fc fusion),–
2160,3.8,variant CD80 IgV-Fc (inert) E35D/M47L/A71G/L97Q (Fc fusion),–
–,–,CD80 IgV-Fc E35D/N48K/L72V (from UniProt P33681 35-141) (Fc fusion),"Jurkat/IL2 + CHO/OKT3/PD-L1 reporter assay, RLU at CD80 Conc 5.0 nM (PD-L1 (human)): 1730 RLU"
504,0.9,variant CD80 IgV-Fc (inert) Q33K/E35D/D46V/L85Q (Fc fusion),–
554,–,variant CD80 IgV-Fc (inert) Q33L/E35D/D46E/M47I (Fc fusion),–
551,–,variant CD80 IgV-Fc (inert) Q27H/Q33L/E35D/M47V/N55D/L85Q/K89N (Fc fusion),–
576,–,variant CD80 IgV-Fc (inert) E35D/M47V/A71G/L85M/L97Q (Fc fusion),–
–,4,variant CD80 IgV-Fc (inert) E35D/D46V/M47I/A71G/F92V (Fc fusion),–
–,–,variant CD80 IgV-Fc (inert) H18Y/A26T/E35D/A71D/L85Q (Fc fusion),"IL-2-luciferase RLU, Jurkat + CHO/OKT3/PD-L1 aAPC, 0.6 nM (CD28 (human)): 628 RLU; IL-2-luciferase RLU, Jurkat + CHO/OKT3/PD-L1 aAPC, 1.9 nM (CD28 (human)): 621 RLU; IL-2-luciferase RLU, Jurkat + CHO/OKT3/PD-L1 aAPC, 5.6 nM (CD28 (human)): 795 RLU; IL-2-luciferase RLU, Jurkat + CHO/OKT3/PD-L1 aAPC, 16.7 nM (CD28 (human)): 974 RLU; IL-2-luciferase RLU, Jurkat + CHO/OKT3/PD-L1 aAPC, 50 nM (CD28 (human)): 1160 RLU; IL-2-luciferase RLU, Jurkat + CHO/OKT3 aAPC (no PD-L1), 16.7 nM (CD28 (human)): 660 RLU; IL-2-luciferase RLU, Jurkat + CHO/OKT3 aAPC (no PD-L1), 50 nM (CD28 (human)): 926 RLU"
–,–,CD80 IgV-Fc D46V/M47I/A71G (from UniProt P33681 35-141) (Fc fusion),"Jurkat/IL2 + CHO/OKT3/PD-L1 reporter assay, RLU at CD80 Conc 5.0 nM (PD-L1 (human)): 1600 RLU"
438,–,variant CD80 IgV-Fc (inert) E35D/M47V/T62A/A71G/V83A/Y87H/L97M (Fc fusion),–
416,0.7,variant CD80 IgV-Fc (inert) A26E/Q33L/E35D/M47L/L85Q (Fc fusion),–
–,–,CD80 IgV-Fc (inert) H18T/A26N/E35D/M47L/V68M/A71G (from UniProt P33681 35-141) (Fc fusion),"RLU, Jurkat/IL2 + CHO/OKT3/PD-L1 Reporter Assay, CD80 Conc 5.0 nM (PD-L1 (human)): 1050 RLU"
3240,5.7,variant CD80 IgV-Fc (inert) E24D/Q33L/E35D/M47V/K54R/L85Q (Fc fusion),–
–,–,CD80 IgV-Fc H18Y/E35D/M47L/A71G/A91S (from UniProt P33681 35-141) (Fc fusion),"Jurkat/IL2 + CHO/OKT3/PD-L1 reporter assay, RLU at CD80 Conc 5.0 nM (PD-L1 (human)): 1900 RLU"
533,0.9,variant CD80 IgV-Fc (inert) Q33L/E35D/T41S/M43I (Fc fusion),–
4340,–,variant CD80 IgV-Fc (inert) H18Y/E35D/V68M/L97Q (Fc fusion),–

"IL-2-luciferase RLU, Jurkat + K562/OKT3/PD-L1 aAPC, 50 nM (CD28 (human)) [RLU]","Fold Increase over WT CD80-IgV-Fc, same assay, 50 nM (CD28 (human)) [fold]",Substance,other results
3040,–,WT CD80-ECD-Fc (effector) (from UniProt P33681 35-242) (Fc fusion),–
408,0.7,variant CD80 IgV-Fc (inert) H18Y/A26E/Q33L/E35D/M47L/L85Q (Fc fusion),–
602,1.1,variant CD80 IgV-Fc (inert) E35D/M47I/K54R/L85E (Fc fusion),–
3310,5.9,variant CD80 IgV-Fc (inert) V22A/R29H/E35D/D46E/M47I (Fc fusion),–
415,0.7,variant CD80 IgV-Fc (inert) Q33K/E35D/M47V/K89E/K93R (Fc fusion),–
553,–,variant CD80 IgV-Fc (inert) Q33L/E35D/M43I/L85Q/R94W (Fc fusion),–
538,–,variant CD80 IgV-Fc (inert) V22A/E35D/V68E/A71D (Fc fusion),–
476,–,variant CD80 IgV-Fc (inert) A26E/Q33L/E35D/M47L (Fc fusion),–
468,–,variant CD80 IgV-Fc (inert) S15P/Q33L/E35D/M47L/L85Q (Fc fusion),–
569,–,variant CD80 IgV-Fc (inert) A26E/Q33R/E35D/M47L/L85Q/K86E (Fc fusion),–
–,5,variant CD80 IgV-Fc (inert) E35D/M47L/L85Q (Fc fusion),–
1090,1.9,variant CD80 IgV-Fc (inert) E35D/D46E/M47V/L97Q (Fc fusion),–
498,0.9,variant CD80 IgV-Fc (inert) A26E/E35D/M43I/M47L/L85Q/K86E/R94W (Fc fusion),–
526,0.9,variant CD80 IgV-Fc (inert) A26E/E35D/M43T/M47L/L85Q/R94Q (Fc fusion),–
390,0.7,variant CD80 IgV-Fc (inert) V22A/E23D/Q33L/E35D/M47V (Fc fusion),–
2980,5.3,variant CD80 IgV-Fc (inert) H18Y/E35D/M47L (Fc fusion),–
566,–,variant CD80 IgV-Fc (inert) H18Y/V20A/Q33L/E35D/M47V/Y53F (Fc fusion),–
513,0.9,variant CD80 IgV-Fc (inert) Q27H/E35D/M47L/L85Q/R94Q/E95K (Fc fusion),–
572,–,variant CD80 IgV-Fc (inert) Q33L/E35D/M47L/V68M/L85Q/E88D (Fc fusion),–
2650,4.7,variant CD80 IgV-Fc (inert) H18L/V22A/E35D/M47L/N48T/L85Q (Fc fusion),–

"IL-2-luciferase RLU, Jurkat + K562/OKT3/PD-L1 aAPC, 50 nM (CD28 (human)) [RLU]","Fold Increase over WT CD80-IgV-Fc, same assay, 50 nM (CD28 (human)) [fold]",Substance,other results
500,0.9,variant CD80 IgV-Fc (inert) A26E/Q33R/E35D/M47L/L85Q (Fc fusion),–
481,–,variant CD80 IgV-Fc (inert) Q33L/E35D/T41S/M47V (Fc fusion),–
1240,2.2,variant CD80 IgV-Fc (inert) E7D/E35D/M47I/L97Q (Fc fusion),–
358,0.6,variant CD80 IgV-Fc (inert) Q33L/E35D/N48K/L85Q/L97Q (Fc fusion),–
463,–,variant CD80 IgV-Fc (inert) Q33L/E35D/M47I/T62N/L85Q (Fc fusion),–
–,–,WT IgG1 Fc Control,"IL-2 release, primary T cells; K562/OKT3 (No PD-L1); 1 nM (CD28 (human)): 7080; IL-2 release, primary T cells; K562/OKT3 (No PD-L1); 10 nM (CD28 (human)): 6920; IL-2 release, primary T cells; K562/OKT3 (No PD-L1); 100 nM (CD28 (human)): 6260"
473,–,variant CD80 IgV-Fc (inert) Q33L/E35D/M43V/M47I/A71G (Fc fusion),–
464,–,variant CD80 IgV-Fc (inert) Q33R/E35D/K37E/M47V/L85Q (Fc fusion),–
394,0.7,variant CD80 IgV-Fc (inert) Q33L/E35D/M47L/A71G/F92S (Fc fusion),–
522,0.9,variant CD80 IgV-Fc (inert) Q33R/E35D/D46E/M47I (Fc fusion),–
473,–,variant CD80 IgV-Fc (inert) E35D/M47I/E77A/L85Q/R94W (Fc fusion),–
496,0.9,variant CD80 IgV-Fc (inert) Y31S/E35D/M47L/T79L/E88G (Fc fusion),–
527,0.9,variant CD80 IgV-Fc (inert) Q33L/E35D/M47V/T79A (Fc fusion),–
423,0.7,variant CD80 IgV-Fc (inert) Q33L/E35D/M47I (Fc fusion),–
432,–,variant CD80 IgV-Fc (inert) Q33L/E35D/M47I/L85Q (Fc fusion),–
486,0.9,variant CD80 IgV-Fc (inert) H18Y/Q33L/E35D/M47I (Fc fusion),–
–,–,variant CD80 IgV-Fc (inert) A71D/L72V/E95K (Fc fusion),"IL-2-luciferase RLU, Jurkat + CHO/OKT3/PD-L1 aAPC, 0.6 nM (CD28 (human)): 524 RLU; IL-2-luciferase RLU, Jurkat + CHO/OKT3/PD-L1 aAPC, 1.9 nM (CD28 (human)): 530 RLU; IL-2-luciferase RLU, Jurkat + CHO/OKT3/PD-L1 aAPC, 5.6 nM (CD28 (human)): 617 RLU; IL-2-luciferase RLU, Jurkat + CHO/OKT3/PD-L1 aAPC, 16.7 nM (CD28 (human)): 641 RLU; IL-2-luciferase RLU, Jurkat + CHO/OKT3/PD-L1 aAPC, 50 nM (CD28 (human)): 755 RLU; IL-2-luciferase RLU, Jurkat + CHO/OKT3 aAPC (no PD-L1), 5.6 nM (CD28 (human)): 466 RLU; IL-2-luciferase RLU, Jurkat + CHO/OKT3 aAPC (no PD-L1), 16.7 nM (CD28 (human)): 547 RLU; IL-2-luciferase RLU, Jurkat + CHO/OKT3 aAPC (no PD-L1), 50 nM (CD28 (human)): 644 RLU"
393,0.7,variant CD80 IgV-Fc (inert) Q33L/E35D/M47V (Fc fusion),–
